Here are results for 94 variants from the supplement of paper PMC10567573.

The chains are these.
B1: PRPH (parent)
chain: DEIEFLKKLHEEELRDLQVSVESQ
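Also: lentivirally expressed fusions sorted by FACS into six bins by GFP to DsRed ratio, PSI derived from sequencing read proportions per bin multiplied by bin number.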

The variants in this series derive from B1. As to the kind of experiment: protein stability index of a GFP-peptide fusion (GPS, HEK-293T) (PSI 1-6); higher = more stable. As to conditions: c terminus: a fixed tail appended.
Turning to DEIEFLKKLCEEELRDLQVSVESQ, the protein stability index is 4.56.

For DEIEFLKKLQEEELRDLQVSVESQ, the protein stability index amounted to 5.03.

For DEIEFLKKLNEEELRDLQVSVESQ, the protein stability index was determined as 4.16.

As to DEIEFLKKLIEEELRDLQVSVESQ, the protein stability index was determined as 3.37.

Turning to DEIEFLKKLREEELRDLQVSVESQ, the protein stability index amounted to 4.87.

For the variant DEIEFLKKLHFEELRDLQVSVESQ, the protein stability index was 3.69.

DEIEFLKKLHMEELRDLQVSVESQ: the protein stability index came to 3.99.

For the variant DEIEFLKKLHLEELRDLQVSVESQ, the protein stability index was 4.11.

In the case of DEIEFLKKLHGEELRDLQVSVESQ, the protein stability index came to 4.95.

As to DEIEFLKKLHNEELRDLQVSVESQ, the protein stability index was determined as 4.57.

DEIEFLKKLHIEELRDLQVSVESQ: the protein stability index was 4.01.

In the case of DEIEFLKKLHQEELRDLQVSVESQ, the protein stability index was determined as 4.08.

Consider DEIEFLKKLHCEELRDLQVSVESQ, for which the protein stability index stood at 4.09.

As for DEIEFLKKLHKEELRDLQVSVESQ, the protein stability index worked out at 4.92.

Consider DEIEFLKKLHDEELRDLQVSVESQ, for which the protein stability index was 4.94.

For DEIEFLKKLHAEELRDLQVSVESQ, the protein stability index was 4.29.

For DEIEFLKKLHHEELRDLQVSVESQ, the protein stability index was determined as 4.42.

Consider DEIEFLKKLHPEELRDLQVSVESQ, for which the protein stability index came to 4.34.

In the case of DEIEFKKKLHEEELRDLQVSVESQ, the protein stability index was found to be 4.99.

As for DEIEFYKKLHEEELRDLQVSVESQ, the protein stability index came out at 4.72.

As for DEIEFEKKLHEEELRDLQVSVESQ, the protein stability index was 5.18.

Take DEIEFPKKLHEEELRDLQVSVESQ: the protein stability index was determined as 5.33.

Turning to DEIEFSKKLHEEELRDLQVSVESQ, the protein stability index came out at 5.12.

Regarding DEIEFIKKLHEEELRDLQVSVESQ, the protein stability index was 4.97.

On to DEIEFGKKLHEEELRDLQVSVESQ, for which the protein stability index was determined as 5.07.

Turning to DEIEFCKKLHEEELRDLQVSVESQ, the protein stability index worked out at 5.09.

Turning to DEIEFDKKLHEEELRDLQVSVESQ, the protein stability index was 5.56.

Consider DEIEFQKKLHEEELRDLQVSVESQ, for which the protein stability index stood at 5.54.

Take DEIEFWKKLHEEELRDLQVSVESQ: the protein stability index amounted to 4.61.

As for DEIEFTKKLHEEELRDLQVSVESQ, the protein stability index was 5.13.

Consider DEIEFRKKLHEEELRDLQVSVESQ, for which the protein stability index worked out at 4.91.

For the variant DEIEFHKKLHEEELRDLQVSVESQ, the protein stability index worked out at 5.21.

Consider DEIEFAKKLHEEELRDLQVSVESQ, for which the protein stability index was determined as 5.48.

For DEIEFMKKLHEEELRDLQVSVESQ, the protein stability index came out at 4.89.

For DEIEFFKKLHEEELRDLQVSVESQ, the protein stability index is 4.42.

Take DEIEFVKKLHEEELRDLQVSVESQ: the protein stability index is 4.46.

For DEIEFNKKLHEEELRDLQVSVESQ, the protein stability index was 5.61.

For the variant DEIEFLKCLHEEELRDLQVSVESQ, the protein stability index came to 3.8.

For DEIEFLKRLHEEELRDLQVSVESQ, the protein stability index stood at 4.61.

Regarding DEIEFLKSLHEEELRDLQVSVESQ, the protein stability index is 4.15.

With DEIEFLKYLHEEELRDLQVSVESQ, the protein stability index amounted to 4.23.

With DEIEFLKDLHEEELRDLQVSVESQ, the protein stability index amounted to 4.89.

Regarding DEIEFLKMLHEEELRDLQVSVESQ, the protein stability index came out at 4.25.

With DEIEFLKVLHEEELRDLQVSVESQ, the protein stability index stood at 4.06.

Regarding DEIEFLKFLHEEELRDLQVSVESQ, the protein stability index came out at 3.94.

In the case of DEIEFLKALHEEELRDLQVSVESQ, the protein stability index worked out at 5.1.

DEIEFLKILHEEELRDLQVSVESQ: the protein stability index was 4.35.

Turning to DEIEFLKLLHEEELRDLQVSVESQ, the protein stability index amounted to 4.32.

As for DEIEFLKELHEEELRDLQVSVESQ, the protein stability index was determined as 4.37.

On to DEIEFLKPLHEEELRDLQVSVESQ, for which the protein stability index stood at 5.23.

In the case of DEIEFLKWLHEEELRDLQVSVESQ, the protein stability index turned out to be 3.45.

Consider DEIEFLKTLHEEELRDLQVSVESQ, for which the protein stability index stood at 4.78.

Consider DEIEFLKGLHEEELRDLQVSVESQ, for which the protein stability index turned out to be 4.55.

Take DEIEFLKNLHEEELRDLQVSVESQ: the protein stability index is 4.84.

For the variant DEIEFLKHLHEEELRDLQVSVESQ, the protein stability index was 4.63.

Consider DEIEFLKQLHEEELRDLQVSVESQ, for which the protein stability index stood at 4.98.

In the case of DEIENLKKLHEEELRDLQVSVESQ, the protein stability index was 4.9.

Take DEIELLKKLHEEELRDLQVSVESQ: the protein stability index was 5.18.

Take DEIEDLKKLHEEELRDLQVSVESQ: the protein stability index was found to be 5.27.

On to DEIEQLKKLHEEELRDLQVSVESQ, for which the protein stability index was found to be 5.41.

Consider DEIETLKKLHEEELRDLQVSVESQ, for which the protein stability index is 5.1.

Take DEIEHLKKLHEEELRDLQVSVESQ: the protein stability index was found to be 4.85.

Regarding DEIERLKKLHEEELRDLQVSVESQ, the protein stability index amounted to 4.79.

For the variant DEIEELKKLHEEELRDLQVSVESQ, the protein stability index was determined as 5.47.

In the case of DEIEALKKLHEEELRDLQVSVESQ, the protein stability index is 4.69.

For the variant DEIEPLKKLHEEELRDLQVSVESQ, the protein stability index was found to be 5.22.

Consider DEIESLKKLHEEELRDLQVSVESQ, for which the protein stability index amounted to 5.07.

As for DEIECLKKLHEEELRDLQVSVESQ, the protein stability index came out at 5.15.

Regarding DEIEYLKKLHEEELRDLQVSVESQ, the protein stability index was 4.58.

For DEIEWLKKLHEEELRDLQVSVESQ, the protein stability index turned out to be 4.42.

Regarding DEIEKLKKLHEEELRDLQVSVESQ, the protein stability index was 4.73.

Take DEIEMLKKLHEEELRDLQVSVESQ: the protein stability index was found to be 5.

Regarding DEIEVLKKLHEEELRDLQVSVESQ, the protein stability index worked out at 4.95.

As to DEIEILKKLHEEELRDLQVSVESQ, the protein stability index was found to be 4.92.

Consider DEIEGLKKLHEEELRDLQVSVESQ, for which the protein stability index is 5.36.

For DEIEFLEKLHEEELRDLQVSVESQ, the protein stability index worked out at 4.83.

Turning to DEIEFLVKLHEEELRDLQVSVESQ, the protein stability index is 2.59.

With DEIEFLQKLHEEELRDLQVSVESQ, the protein stability index was determined as 4.61.

With DEIEFLSKLHEEELRDLQVSVESQ, the protein stability index was determined as 3.85.

For DEIEFLAKLHEEELRDLQVSVESQ, the protein stability index worked out at 4.11.

DEIEFLRKLHEEELRDLQVSVESQ: the protein stability index was 4.59.

With DEIEFLLKLHEEELRDLQVSVESQ, the protein stability index came out at 2.37.

Take DEIEFLTKLHEEELRDLQVSVESQ: the protein stability index was determined as 3.15.

As to DEIEFLFKLHEEELRDLQVSVESQ, the protein stability index was found to be 2.11.

Turning to DEIEFLPKLHEEELRDLQVSVESQ, the protein stability index came to 5.04.

Consider DEIEFLWKLHEEELRDLQVSVESQ, for which the protein stability index was determined as 1.96.

DEIEFLCKLHEEELRDLQVSVESQ: the protein stability index turned out to be 2.85.

Take DEIEFLHKLHEEELRDLQVSVESQ: the protein stability index was 4.21.

With DEIEFLDKLHEEELRDLQVSVESQ, the protein stability index was 5.06.

Consider DEIEFLGKLHEEELRDLQVSVESQ, for which the protein stability index came out at 4.52.

Regarding DEIEFLYKLHEEELRDLQVSVESQ, the protein stability index turned out to be 2.42.

For the variant DEIEFLNKLHEEELRDLQVSVESQ, the protein stability index was determined as 5.18.

With DEIEFLIKLHEEELRDLQVSVESQ, the protein stability index is 2.03.

In the case of DEIEFLMKLHEEELRDLQVSVESQ, the protein stability index worked out at 3.07.
